Measured values taken from patent US20140087995A1 (published 2014).
Numbered stars: 1 amine (or outer) side, 2 acyl side, 3 side chain; on linkers, the order of the positions; unused ones are H or OH. Bridge positions count the residues as written; N and C are the ends. Side chains are listed from the residue outwards. Ends that are not written are not given here. * marks the point of attachment. C20 diacid = O=C(O)CCCCCCCCCCCCCCCCCCC(=O)*; γGlu = O=C(O)[C@H](CCC(=O)[*:2])N[*:1]

T1: human calcitonin receptor (human, UniProt P30988 25-474)
T1 sequence (looked up): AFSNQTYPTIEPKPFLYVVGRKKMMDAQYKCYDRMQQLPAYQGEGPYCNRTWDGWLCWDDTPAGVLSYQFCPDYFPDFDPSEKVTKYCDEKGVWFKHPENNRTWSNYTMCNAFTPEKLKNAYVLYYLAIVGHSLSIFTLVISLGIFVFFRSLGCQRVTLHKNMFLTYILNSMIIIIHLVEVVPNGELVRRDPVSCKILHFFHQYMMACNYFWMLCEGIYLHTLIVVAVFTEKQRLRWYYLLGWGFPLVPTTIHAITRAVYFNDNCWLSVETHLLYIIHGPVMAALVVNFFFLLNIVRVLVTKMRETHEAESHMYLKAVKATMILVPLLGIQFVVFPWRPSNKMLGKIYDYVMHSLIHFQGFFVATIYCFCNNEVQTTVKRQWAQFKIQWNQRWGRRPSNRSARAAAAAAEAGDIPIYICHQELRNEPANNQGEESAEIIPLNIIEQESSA

T2: human amylin receptor (amylin 3(a) receptor: human calcitonin receptor co-expressed with RAMP-3) (human, UniProt P30988 25-474; O60896 24-148, limits assumed)
T2 sequence (looked up) 1: T1 sequence (looked up)
T2 sequence (looked up) 2: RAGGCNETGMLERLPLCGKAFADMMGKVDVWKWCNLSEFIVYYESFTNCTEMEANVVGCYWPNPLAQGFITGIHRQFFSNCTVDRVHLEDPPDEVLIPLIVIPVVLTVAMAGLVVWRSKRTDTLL

B1: N^ε1-[(4S)-4-carboxy-4-(19-carboxynonadecanoylamino)butanoyl]-[Ala14,Arg17,Pro21,Pro27,His34]-h-amylin (peptide)
peptide: K([γGlu-C20 diacid])CNTATCATQRLAAFLRHSSPNFGAIPSSTNVGHNTY-NH2
modifications: disulfide 2-7; N-terminus assumed
SMILES: CC[C@H](C)[C@H](NC(=O)[C@H](C)NC(=O)CNC(=O)[C@H](Cc1ccccc1)NC(=O)[C@H](CC(N)=O)NC(=O)[C@@H]1CCCN1C(=O)[C@H](CO)NC(=O)[C@H](CO)NC(=O)[C@H](Cc1c[nH]cn1)NC(=O)[C@H](CCCNC(=N)N)NC(=O)[C@H](CC(C)C)NC(=O)[C@H](Cc1ccccc1)NC(=O)[C@H](C)NC(=O)[C@H](C)NC(=O)[C@H](CC(C)C)NC(=O)[C@H](CCCNC(=N)N)NC(=O)[C@H](CCC(N)=O)NC(=O)[C@@H](NC(=O)[C@H](C)NC(=O)[C@@H]1CSSC[C@H](NC(=O)[C@@H](N)CCCCNC(=O)CC[C@H](NC(=O)CCCCCCCCCCCCCCCCCCC(=O)O)C(=O)O)C(=O)N[C@@H](CC(N)=O)C(=O)N[C@@H]([C@@H](C)O)C(=O)N[C@@H](C)C(=O)N[C@@H]([C@@H](C)O)C(=O)N1)[C@@H](C)O)C(=O)N1CCC[C@H]1C(=O)N[C@@H](CO)C(=O)N[C@@H](CO)C(=O)N[C@H](C(=O)N[C@@H](CC(N)=O)C(=O)N[C@H](C(=O)NCC(=O)N[C@@H](Cc1c[nH]cn1)C(=O)N[C@@H](CC(N)=O)C(=O)N[C@H](C(=O)N[C@@H](Cc1ccc(O)cc1)C(N)=O)[C@@H](C)O)C(C)C)[C@@H](C)O
notes: also called compound 93
B2: N^ε1-[(4S)-4-carboxy-4-(19-carboxynonadecanoylamino)butanoyl]-[Arg14,Arg17,Pro21,Pro27]-h-amylin (peptide)
peptide: K([γGlu-C20 diacid])CNTATCATQRLARFLRHSSPNFGAIPSSTNVGSNTY-NH2
modifications: disulfide 2-7; N-terminus assumed
SMILES: CC[C@H](C)[C@H](NC(=O)[C@H](C)NC(=O)CNC(=O)[C@H](Cc1ccccc1)NC(=O)[C@H](CC(N)=O)NC(=O)[C@@H]1CCCN1C(=O)[C@H](CO)NC(=O)[C@H](CO)NC(=O)[C@H](Cc1c[nH]cn1)NC(=O)[C@H](CCCNC(=N)N)NC(=O)[C@H](CC(C)C)NC(=O)[C@H](Cc1ccccc1)NC(=O)[C@H](CCCNC(=N)N)NC(=O)[C@H](C)NC(=O)[C@H](CC(C)C)NC(=O)[C@H](CCCNC(=N)N)NC(=O)[C@H](CCC(N)=O)NC(=O)[C@@H](NC(=O)[C@H](C)NC(=O)[C@@H]1CSSC[C@H](NC(=O)[C@@H](N)CCCCNC(=O)CC[C@H](NC(=O)CCCCCCCCCCCCCCCCCCC(=O)O)C(=O)O)C(=O)N[C@@H](CC(N)=O)C(=O)N[C@@H]([C@@H](C)O)C(=O)N[C@@H](C)C(=O)N[C@@H]([C@@H](C)O)C(=O)N1)[C@@H](C)O)C(=O)N1CCC[C@H]1C(=O)N[C@@H](CO)C(=O)N[C@@H](CO)C(=O)N[C@H](C(=O)N[C@@H](CC(N)=O)C(=O)N[C@H](C(=O)NCC(=O)N[C@@H](CO)C(=O)N[C@@H](CC(N)=O)C(=O)N[C@H](C(=O)N[C@@H](Cc1ccc(O)cc1)C(N)=O)[C@@H](C)O)C(C)C)[C@@H](C)O
notes: also called compound 83
B3: N^ε1-[(4S)-4-carboxy-4-(19-carboxynonadecanoylamino)butanoyl]-[Arg14,Arg17,Pro21,Pro27,Pro31]-h-amylin (peptide)
peptide: K([γGlu-C20 diacid])CNTATCATQRLARFLRHSSPNFGAIPSSTPVGSNTY-NH2
modifications: disulfide 2-7; N-terminus assumed
SMILES: CC[C@H](C)[C@H](NC(=O)[C@H](C)NC(=O)CNC(=O)[C@H](Cc1ccccc1)NC(=O)[C@H](CC(N)=O)NC(=O)[C@@H]1CCCN1C(=O)[C@H](CO)NC(=O)[C@H](CO)NC(=O)[C@H](Cc1c[nH]cn1)NC(=O)[C@H](CCCNC(=N)N)NC(=O)[C@H](CC(C)C)NC(=O)[C@H](Cc1ccccc1)NC(=O)[C@H](CCCNC(=N)N)NC(=O)[C@H](C)NC(=O)[C@H](CC(C)C)NC(=O)[C@H](CCCNC(=N)N)NC(=O)[C@H](CCC(N)=O)NC(=O)[C@@H](NC(=O)[C@H](C)NC(=O)[C@@H]1CSSC[C@H](NC(=O)[C@@H](N)CCCCNC(=O)CC[C@H](NC(=O)CCCCCCCCCCCCCCCCCCC(=O)O)C(=O)O)C(=O)N[C@@H](CC(N)=O)C(=O)N[C@@H]([C@@H](C)O)C(=O)N[C@@H](C)C(=O)N[C@@H]([C@@H](C)O)C(=O)N1)[C@@H](C)O)C(=O)N1CCC[C@H]1C(=O)N[C@@H](CO)C(=O)N[C@@H](CO)C(=O)N[C@H](C(=O)N1CCC[C@H]1C(=O)N[C@H](C(=O)NCC(=O)N[C@@H](CO)C(=O)N[C@@H](CC(N)=O)C(=O)N[C@H](C(=O)N[C@@H](Cc1ccc(O)cc1)C(N)=O)[C@@H](C)O)C(C)C)[C@@H](C)O
notes: also called compound 63
B4: N^ε1-[(4S)-4-carboxy-4-(19-carboxynonadecanoylamino)butanoyl]-[Arg14,Arg17,Pro21,Pro27,Pro34]-h-amylin (peptide)
peptide: K([γGlu-C20 diacid])CNTATCATQRLARFLRHSSPNFGAIPSSTNVGPNTY-NH2
modifications: disulfide 2-7; N-terminus assumed
SMILES: CC[C@H](C)[C@H](NC(=O)[C@H](C)NC(=O)CNC(=O)[C@H](Cc1ccccc1)NC(=O)[C@H](CC(N)=O)NC(=O)[C@@H]1CCCN1C(=O)[C@H](CO)NC(=O)[C@H](CO)NC(=O)[C@H](Cc1c[nH]cn1)NC(=O)[C@H](CCCNC(=N)N)NC(=O)[C@H](CC(C)C)NC(=O)[C@H](Cc1ccccc1)NC(=O)[C@H](CCCNC(=N)N)NC(=O)[C@H](C)NC(=O)[C@H](CC(C)C)NC(=O)[C@H](CCCNC(=N)N)NC(=O)[C@H](CCC(N)=O)NC(=O)[C@@H](NC(=O)[C@H](C)NC(=O)[C@@H]1CSSC[C@H](NC(=O)[C@@H](N)CCCCNC(=O)CC[C@H](NC(=O)CCCCCCCCCCCCCCCCCCC(=O)O)C(=O)O)C(=O)N[C@@H](CC(N)=O)C(=O)N[C@@H]([C@@H](C)O)C(=O)N[C@@H](C)C(=O)N[C@@H]([C@@H](C)O)C(=O)N1)[C@@H](C)O)C(=O)N1CCC[C@H]1C(=O)N[C@@H](CO)C(=O)N[C@@H](CO)C(=O)N[C@H](C(=O)N[C@@H](CC(N)=O)C(=O)N[C@H](C(=O)NCC(=O)N1CCC[C@H]1C(=O)N[C@@H](CC(N)=O)C(=O)N[C@H](C(=O)N[C@@H](Cc1ccc(O)cc1)C(N)=O)[C@@H](C)O)C(C)C)[C@@H](C)O
notes: also called compound 65
B5: N^ε1-[(4S)-4-carboxy-4-(19-carboxynonadecanoylamino)butanoyl]-[Arg17,Pro21,Pro27,His34]-h-amylin (peptide)
peptide: K([γGlu-C20 diacid])CNTATCATQRLANFLRHSSPNFGAIPSSTNVGHNTY-NH2
modifications: disulfide 2-7; N-terminus assumed
SMILES: CC[C@H](C)[C@H](NC(=O)[C@H](C)NC(=O)CNC(=O)[C@H](Cc1ccccc1)NC(=O)[C@H](CC(N)=O)NC(=O)[C@@H]1CCCN1C(=O)[C@H](CO)NC(=O)[C@H](CO)NC(=O)[C@H](Cc1c[nH]cn1)NC(=O)[C@H](CCCNC(=N)N)NC(=O)[C@H](CC(C)C)NC(=O)[C@H](Cc1ccccc1)NC(=O)[C@H](CC(N)=O)NC(=O)[C@H](C)NC(=O)[C@H](CC(C)C)NC(=O)[C@H](CCCNC(=N)N)NC(=O)[C@H](CCC(N)=O)NC(=O)[C@@H](NC(=O)[C@H](C)NC(=O)[C@@H]1CSSC[C@H](NC(=O)[C@@H](N)CCCCNC(=O)CC[C@H](NC(=O)CCCCCCCCCCCCCCCCCCC(=O)O)C(=O)O)C(=O)N[C@@H](CC(N)=O)C(=O)N[C@@H]([C@@H](C)O)C(=O)N[C@@H](C)C(=O)N[C@@H]([C@@H](C)O)C(=O)N1)[C@@H](C)O)C(=O)N1CCC[C@H]1C(=O)N[C@@H](CO)C(=O)N[C@@H](CO)C(=O)N[C@H](C(=O)N[C@@H](CC(N)=O)C(=O)N[C@H](C(=O)NCC(=O)N[C@@H](Cc1c[nH]cn1)C(=O)N[C@@H](CC(N)=O)C(=O)N[C@H](C(=O)N[C@@H](Cc1ccc(O)cc1)C(N)=O)[C@@H](C)O)C(C)C)[C@@H](C)O
notes: also called compound 77
B6: N^ε1-[(4S)-4-carboxy-4-(19-carboxynonadecanoylamino)butanoyl]-[Arg17,Pro21,Pro27,Arg34]-h-amylin (peptide)
peptide: K([γGlu-C20 diacid])CNTATCATQRLANFLRHSSPNFGAIPSSTNVGRNTY-NH2
modifications: disulfide 2-7; N-terminus assumed
SMILES: CC[C@H](C)[C@H](NC(=O)[C@H](C)NC(=O)CNC(=O)[C@H](Cc1ccccc1)NC(=O)[C@H](CC(N)=O)NC(=O)[C@@H]1CCCN1C(=O)[C@H](CO)NC(=O)[C@H](CO)NC(=O)[C@H](Cc1c[nH]cn1)NC(=O)[C@H](CCCNC(=N)N)NC(=O)[C@H](CC(C)C)NC(=O)[C@H](Cc1ccccc1)NC(=O)[C@H](CC(N)=O)NC(=O)[C@H](C)NC(=O)[C@H](CC(C)C)NC(=O)[C@H](CCCNC(=N)N)NC(=O)[C@H](CCC(N)=O)NC(=O)[C@@H](NC(=O)[C@H](C)NC(=O)[C@@H]1CSSC[C@H](NC(=O)[C@@H](N)CCCCNC(=O)CC[C@H](NC(=O)CCCCCCCCCCCCCCCCCCC(=O)O)C(=O)O)C(=O)N[C@@H](CC(N)=O)C(=O)N[C@@H]([C@@H](C)O)C(=O)N[C@@H](C)C(=O)N[C@@H]([C@@H](C)O)C(=O)N1)[C@@H](C)O)C(=O)N1CCC[C@H]1C(=O)N[C@@H](CO)C(=O)N[C@@H](CO)C(=O)N[C@H](C(=O)N[C@@H](CC(N)=O)C(=O)N[C@H](C(=O)NCC(=O)N[C@@H](CCCNC(=N)N)C(=O)N[C@@H](CC(N)=O)C(=O)N[C@H](C(=O)N[C@@H](Cc1ccc(O)cc1)C(N)=O)[C@@H](C)O)C(C)C)[C@@H](C)O
notes: also called compound 79

Target: T1, human calcitonin receptor
Assay: cell-based or functional assay

hCTR funct. EC50 [nM] | Binder
1.15 | B1
16.8 | B2
5.13 | B3
9.33 | B4
5.4 | B5
3.94 | B6

Target: T2, human amylin receptor (amylin 3(a) …)
Assay: cell-based or functional assay

Ratio hCT/hAmylin funct. | hAmylin-R funct. EC50 [nM] | Binder
9.7 | 0.118 | B1
41.6 | 0.405 | B2
 | 0.037 | B3
 | 0.242 | B4
 | 0.145 | B5
24.5 | 0.161 | B6
